Data as given in patent US20210388087A1 (Chugai, published 2021).
Numbering of substitutions follows the chain as printed. Numbers in names are those of the source.

B1: H183/L072 VL Q24E (antibody, name in Kabat numbering, V domains shown)
VH: QVQLVESGGGLVQPGRSLRLSCAASGFTFSNAWMHWVRQAPGKGLEWVAQIKDKGNAYAAYYAPSVKGRFTISRDDSKNSIYLQMNSLKTEDTAVYYCHYVHYASASTVLPAFGVDAWGQGTTVTVSS
VL: DIVMTQSPLSLPVTPGEPASISCEASQELVHMNRNTYLHWYQQKPGQAPRLLIYKVSNRFPGVPDRFSGSGSGTDFTLKISRVEAEDVGVYYCAQGTSVPFTFGQGTKLEIK
B2: H183/L072 VL Q27S (antibody, name in Kabat numbering, V domains shown)
VH: B1 VH
VL: B1 VL with E24Q, Q27S
B3: H183/L072 VL Q27H (antibody, name in Kabat numbering, V domains shown)
VH: B1 VH
VL: B1 VL with E24Q, Q27H
B4: H183/L072 VL R29A (antibody, name in Kabat numbering, V domains shown)
VH: B1 VH
VL: B1 VL with E24Q, R34A
B5: H183/L072 VL Q24W (antibody, name in Kabat numbering, V domains shown)
VH: B1 VH
VL: B1 VL with E24W
B6: H183/L072 VL Q24I (antibody, name in Kabat numbering, V domains shown)
VH: B1 VH
VL: B1 VL with E24I
B7: H183/L072 VL Q24R (antibody, name in Kabat numbering, V domains shown)
VH: B1 VH
VL: B1 VL with E24R
B8: H183/L072 VL R29F (antibody, name in Kabat numbering, V domains shown)
VH: B1 VH
VL: B1 VL with E24Q, R34F
B9: H183/L072 VL Q27W (antibody, name in Kabat numbering, V domains shown)
VH: B1 VH
VL: B1 VL with E24Q, Q27W
B10: H183/L072 VL Q24F (antibody, name in Kabat numbering, V domains shown)
VH: B1 VH
VL: B1 VL with E24F
B11: H183/L072 VL Q27K (antibody, name in Kabat numbering, V domains shown)
VH: B1 VH
VL: B1 VL with E24Q, Q27K
B12: H183/L072 VL Q27V (antibody, name in Kabat numbering, V domains shown)
VH: B1 VH
VL: B1 VL with E24Q, Q27V
B13: H183/L072 VL Q24M (antibody, name in Kabat numbering, V domains shown)
VH: B1 VH
VL: B1 VL with E24M
B14: H183/L072 VL R29D (antibody, name in Kabat numbering, V domains shown)
VH: B1 VH
VL: B1 VL with E24Q, R34D
B15: H183/L072 VL Q24K (antibody, name in Kabat numbering, V domains shown)
VH: B1 VH
VL: B1 VL with E24K
B16: H183/L072 VL Q27A (antibody, name in Kabat numbering, V domains shown)
VH: B1 VH
VL: B1 VL with E24Q, Q27A
B17: H183/L072 VL Q27F (antibody, name in Kabat numbering, V domains shown)
VH: B1 VH
VL: B1 VL with E24Q, Q27F
B18: H183/L072 VL Q24T (antibody, name in Kabat numbering, V domains shown)
VH: B1 VH
VL: B1 VL with E24T
B19: H183/L072 VL Q90T (antibody, name in Kabat numbering, V domains shown)
VH: B1 VH
VL: B1 VL with E24Q, Q95T
B20: H183/L072 VL R29G (antibody, name in Kabat numbering, V domains shown)
VH: B1 VH
VL: B1 VL with E24Q, R34G
B21: H183/L072 VL Q24S (antibody, name in Kabat numbering, V domains shown)
VH: B1 VH
VL: B1 VL with E24S
B22: H183/L072 VL R29I (antibody, name in Kabat numbering, V domains shown)
VH: B1 VH
VL: B1 VL with E24Q, R34I
B23: H183/L072 VL Q27T (antibody, name in Kabat numbering, V domains shown)
VH: B1 VH
VL: B1 VL with E24Q, Q27T
B24: H183/L072 VL Q27I (antibody, name in Kabat numbering, V domains shown)
VH: B1 VH
VL: B1 VL with E24Q, Q27I
B25: H183/L072 VL Q27Y (antibody, name in Kabat numbering, V domains shown)
VH: B1 VH
VL: B1 VL with E24Q, Q27Y
B26: H183/L072 VL Q24H (antibody, name in Kabat numbering, V domains shown)
VH: B1 VH
VL: B1 VL with E24H
B27: H183/L072 VL Q27M (antibody, name in Kabat numbering, V domains shown)
VH: B1 VH
VL: B1 VL with E24Q, Q27M
B28: H183/L072 VL R29E (antibody, name in Kabat numbering, V domains shown)
VH: B1 VH
VL: B1 VL with E24Q, R34E
B29: H183/L072 VL Q90D (antibody, name in Kabat numbering, V domains shown)
VH: B1 VH
VL: B1 VL with E24Q, Q95D
B30: H183/L072 VL Q27E (antibody, name in Kabat numbering, V domains shown)
VH: B1 VH
VL: B1 VL with E24Q, Q27E
B31: H183/L072 VL Q24Y (antibody, name in Kabat numbering, V domains shown)
VH: B1 VH
VL: B1 VL with E24Y
B32: H183/L072 VL R29H (antibody, name in Kabat numbering, V domains shown)
VH: B1 VH
VL: B1 VL with E24Q, R34H
B33: H183/L072 VL Q24V (antibody, name in Kabat numbering, V domains shown)
VH: B1 VH
VL: B1 VL with E24V
B34: H183/L072 VL Q24L (antibody, name in Kabat numbering, V domains shown)
VH: B1 VH
VL: B1 VL with E24L
B35: H183/L072 VL Q24N (antibody, name in Kabat numbering, V domains shown)
VH: B1 VH
VL: B1 VL with E24N
B36: H183/L072 VL Q27R (antibody, name in Kabat numbering, V domains shown)
VH: B1 VH
VL: B1 VL with E24Q, Q27R
B37: H183/L072 VL Q27D (antibody, name in Kabat numbering, V domains shown)
VH: B1 VH
VL: B1 VL with E24Q, Q27D
B38: H183/L072 VL Q90K (antibody, name in Kabat numbering, V domains shown)
VH: B1 VH
VL: B1 VL with E24Q, Q95K
B39: H183/L072 VL Q90S (antibody, name in Kabat numbering, V domains shown)
VH: B1 VH
VL: B1 VL with E24Q, Q95S
B40: H183/L072 VL Q27L (antibody, name in Kabat numbering, V domains shown)
VH: B1 VH
VL: B1 VL with E24Q, Q27L
B41: H183/L072 VL Q24G (antibody, name in Kabat numbering, V domains shown)
VH: B1 VH
VL: B1 VL with E24G
B42: H183/L072 VL Q27N (antibody, name in Kabat numbering, V domains shown)
VH: B1 VH
VL: B1 VL with E24Q, Q27N
B43: H183/L072 VL Q90H (antibody, name in Kabat numbering, V domains shown)
VH: B1 VH
VL: B1 VL with E24Q, Q95H
B44: H183/L072 VL Q90E (antibody, name in Kabat numbering, V domains shown)
VH: B1 VH
VL: B1 VL with E24Q, Q95E
B45: H183/L072 VL Q27G (antibody, name in Kabat numbering, V domains shown)
VH: B1 VH
VL: B1 VL with E24Q, Q27G

Target: T1, Human CD3eg linker (human)
T1 construct: Single-chain construct; also called recombinant human CD3
T1 chain: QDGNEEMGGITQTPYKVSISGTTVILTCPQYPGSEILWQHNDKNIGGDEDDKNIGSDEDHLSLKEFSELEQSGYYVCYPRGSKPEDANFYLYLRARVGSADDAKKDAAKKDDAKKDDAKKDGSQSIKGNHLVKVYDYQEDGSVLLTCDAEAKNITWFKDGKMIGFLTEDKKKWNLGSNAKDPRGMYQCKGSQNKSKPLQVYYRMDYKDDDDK
Assay: SPR; fold vs parent H183/L072

Binder	fold change of affinity [fold]
B1	0
B2	1.1
B3	1.2
B4	0.6
B5	1.1
B6	1.2
B7	1
B8	0.6
B9	0.7
B10	0.9
B11	0.8
B12	0.9
B13	1.1
B14	0.3
B15	1
B16	1.2
B17	0.9
B18	1.1
B19	0
B20	1.2
B21	1.1
B22	0.2
B23	1

Binder	fold change of affinity [fold]
B24	0.8
B25	0.9
B26	1.1
B27	1.2
B28	0.3
B29	0
B30	1.1
B31	1
B32	0.8
B33	1.2
B34	1.2
B35	1.1
B36	1
B37	1.1
B38	0
B39	0
B40	1
B41	1.2
B42	1
B43	0.1
B44	0.4
B45	1
